The source of these data is the supplement of paper PMC10567573.

B1: ZMYND11 (parent)
chain: YCSIKCQQEHWHAEHKRTCRRKR
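Also: lentivirally expressed fusions sorted by FACS into six bins by GFP to DsRed ratio, PSI derived from sequencing read proportions per bin multiplied by bin number.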

In this data set the parent is B1. Kind of data set: protein stability index of a GFP-peptide fusion (GPS, HEK-293T) (PSI 1-6); higher = more stable. The following applies: c terminus: native.
Take YCSIKCQQNHWHAEHKRTCRRKR [E9N]: the protein stability index was 1.94.

For the variant YCSIKCQQSHWHAEHKRTCRRKR [E9S], the protein stability index is 1.68.

Turning to YCSIKCQQIHWHAEHKRTCRRKR [E9I], the protein stability index came out at 2.11.

With YCSIKCQQQHWHAEHKRTCRRKR [E9Q], the protein stability index is 1.52.

With YCSIKCQQTHWHAEHKRTCRRKR [E9T], the protein stability index turned out to be 1.97.

On to YCSIKCQQFHWHAEHKRTCRRKR [E9F], for which the protein stability index is 2.11.

For the variant YCSIKCQQDHWHAEHKRTCRRKR [E9D], the protein stability index was determined as 2.31.

In the case of YCSIKCQQYHWHAEHKRTCRRKR [E9Y], the protein stability index is 1.93.

As for YCSIKCQQKHWHAEHKRTCRRKR [E9K], the protein stability index was found to be 2.17.

Regarding YCSISCQQEHWHAEHKRTCRRKR [K5S], the protein stability index came to 2.22.

In the case of YCSIECQQEHWHAEHKRTCRRKR [K5E], the protein stability index came to 2.51.

As to YCSIQCQQEHWHAEHKRTCRRKR [K5Q], the protein stability index came out at 3.2.

For the variant YCSIHCQQEHWHAEHKRTCRRKR [K5H], the protein stability index was found to be 2.07.

Take YCSILCQQEHWHAEHKRTCRRKR [K5L]: the protein stability index turned out to be 2.09.

Consider YCSIMCQQEHWHAEHKRTCRRKR [K5M], for which the protein stability index turned out to be 2.27.

In the case of YCSIYCQQEHWHAEHKRTCRRKR [K5Y], the protein stability index came to 2.91.

Turning to YCSIRCQQEHWHAEHKRTCRRKR [K5R], the protein stability index worked out at 3.15.

As to YCSIVCQQEHWHAEHKRTCRRKR [K5V], the protein stability index amounted to 1.66.

In the case of YCSIPCQQEHWHAEHKRTCRRKR [K5P], the protein stability index worked out at 1.75.

With YCSINCQQEHWHAEHKRTCRRKR [K5N], the protein stability index stood at 2.53.

Take YCSITCQQEHWHAEHKRTCRRKR [K5T]: the protein stability index turned out to be 2.6.

Turning to YCSIDCQQEHWHAEHKRTCRRKR [K5D], the protein stability index turned out to be 2.63.

YCSIFCQQEHWHAEHKRTCRRKR [K5F]: the protein stability index is 1.67.

Regarding YCSIGCQQEHWHAEHKRTCRRKR [K5G], the protein stability index is 2.09.

Turning to YCSIICQQEHWHAEHKRTCRRKR [K5I], the protein stability index stood at 1.56.

For YCSIKCQQEHGHAEHKRTCRRKR [W11G], the protein stability index came to 4.05.

In the case of YCSIKCQQEHLHAEHKRTCRRKR [W11L], the protein stability index was determined as 2.97.

Turning to YCSIKCQQEHNHAEHKRTCRRKR [W11N], the protein stability index was 3.98.

As for YCSIKCQQEHQHAEHKRTCRRKR [W11Q], the protein stability index was 4.24.

Consider YCSIKCQQEHDHAEHKRTCRRKR [W11D], for which the protein stability index stood at 4.43.

As to YCSIKCQQEHCHAEHKRTCRRKR [W11C], the protein stability index is 3.41.

Consider YCSIKCQQEHEHAEHKRTCRRKR [W11E], for which the protein stability index came to 4.32.

Turning to YCSIKCQQEHSHAEHKRTCRRKR [W11S], the protein stability index stood at 3.2.

Turning to YCSIKCQQEHMHAEHKRTCRRKR [W11M], the protein stability index was 3.58.

For YCSIKCQQEHVHAEHKRTCRRKR [W11V], the protein stability index came to 3.48.

Take YCSIKCQQEHKHAEHKRTCRRKR [W11K]: the protein stability index is 3.52.

As to YCSIKCQQEHFHAEHKRTCRRKR [W11F], the protein stability index worked out at 2.76.

Take YCSIKCQQEHYHAEHKRTCRRKR [W11Y]: the protein stability index is 3.32.

Turning to YCSIKCQQEHRHAEHKRTCRRKR [W11R], the protein stability index worked out at 2.96.

In the case of YCSIKCQQEHHHAEHKRTCRRKR [W11H], the protein stability index came to 3.45.

On to YCSIKCQQEHTHAEHKRTCRRKR [W11T], for which the protein stability index is 4.7.

Turning to YCSIKCQQEHIHAEHKRTCRRKR [W11I], the protein stability index is 3.03.

As to YCSIKCQQEHAHAEHKRTCRRKR [W11A], the protein stability index came to 2.98.

Turning to YCSIKCQQEHPHAEHKRTCRRKR [W11P], the protein stability index amounted to 4.14.

YCSIKCQQEHWNAEHKRTCRRKR [H12N]: the protein stability index was 2.9.

Turning to YCSIKCQQEHWAAEHKRTCRRKR [H12A], the protein stability index amounted to 2.35.

On to YCSIKCQQEHWYAEHKRTCRRKR [H12Y], for which the protein stability index stood at 3.37.

With YCSIKCQQEHWKAEHKRTCRRKR [H12K], the protein stability index came out at 2.42.

Regarding YCSIKCQQEHWVAEHKRTCRRKR [H12V], the protein stability index turned out to be 1.54.

For the variant YCSIKCQQEHWQAEHKRTCRRKR [H12Q], the protein stability index is 2.36.

Regarding YCSIKCQQEHWMAEHKRTCRRKR [H12M], the protein stability index is 1.31.

As for YCSIKCQQEHWEAEHKRTCRRKR [H12E], the protein stability index amounted to 2.67.

Turning to YCSIKCQQEHWPAEHKRTCRRKR [H12P], the protein stability index amounted to 2.64.

As to YCSIKCQQEHWLAEHKRTCRRKR [H12L], the protein stability index amounted to 2.53.

For YCSIKCQQEHWGAEHKRTCRRKR [H12G], the protein stability index turned out to be 2.73.

Consider YCSIKCQQEHWIAEHKRTCRRKR [H12I], for which the protein stability index came out at 1.59.

For YCSIKCQQEHWCAEHKRTCRRKR [H12C], the protein stability index came to 2.09.

As for YCSIKCQQEHWDAEHKRTCRRKR [H12D], the protein stability index came to 2.82.

Consider YCSIKCQQEHWSAEHKRTCRRKR [H12S], for which the protein stability index is 2.22.

Turning to YCSIKCQQEHWTAEHKRTCRRKR [H12T], the protein stability index worked out at 2.33.

Take YCSIKCQQEHWRAEHKRTCRRKR [H12R]: the protein stability index amounted to 2.53.

Take YCSIKCQQEAWHAEHKRTCRRKR [H10A]: the protein stability index was 1.95.

As for YCSIKCQQENWHAEHKRTCRRKR [H10N], the protein stability index is 3.26.

For YCSIKCQQEEWHAEHKRTCRRKR [H10E], the protein stability index stood at 2.18.

YCSIKCQQEVWHAEHKRTCRRKR [H10V]: the protein stability index was determined as 1.11.

For the variant YCSIKCQQEKWHAEHKRTCRRKR [H10K], the protein stability index turned out to be 2.12.

With YCSIKCQQETWHAEHKRTCRRKR [H10T], the protein stability index amounted to 2.07.

Take YCSIKCQQELWHAEHKRTCRRKR [H10L]: the protein stability index is 1.65.

In the case of YCSIKCQQEQWHAEHKRTCRRKR [H10Q], the protein stability index was found to be 2.45.

On to YCSIKCQQEPWHAEHKRTCRRKR [H10P], for which the protein stability index amounted to 2.1.

As to YCSIKCQQERWHAEHKRTCRRKR [H10R], the protein stability index turned out to be 3.33.

For YCSIKCQQECWHAEHKRTCRRKR [H10C], the protein stability index came to 1.54.

As to YCSIKCQQESWHAEHKRTCRRKR [H10S], the protein stability index was determined as 2.36.

Regarding YCSIKCQQEMWHAEHKRTCRRKR [H10M], the protein stability index was found to be 1.4.

Regarding YCSIKCQQEDWHAEHKRTCRRKR [H10D], the protein stability index was 1.96.

As to YCSIKCQQEIWHAEHKRTCRRKR [H10I], the protein stability index worked out at 1.92.

Take YCSIKCQQEGWHAEHKRTCRRKR [H10G]: the protein stability index is 2.81.

As for YCSIKCQQEYWHAEHKRTCRRKR [H10Y], the protein stability index stood at 1.73.

Take YCSIKCQQEHWHAPHKRTCRRKR [E14P]: the protein stability index turned out to be 1.84.

Take YCSIKCQQEHWHAHHKRTCRRKR [E14H]: the protein stability index was found to be 2.53.

For YCSIKCQQEHWHAVHKRTCRRKR [E14V], the protein stability index amounted to 2.13.

Take YCSIKCQQEHWHAYHKRTCRRKR [E14Y]: the protein stability index was found to be 2.22.

Take YCSIKCQQEHWHACHKRTCRRKR [E14C]: the protein stability index worked out at 2.54.

Take YCSIKCQQEHWHAFHKRTCRRKR [E14F]: the protein stability index came out at 1.76.

On to YCSIKCQQEHWHASHKRTCRRKR [E14S], for which the protein stability index was found to be 2.48.

Turning to YCSIKCQQEHWHAAHKRTCRRKR [E14A], the protein stability index is 2.94.

For the variant YCSIKCQQEHWHADHKRTCRRKR [E14D], the protein stability index came to 2.26.

YCSIKCQQEHWHAIHKRTCRRKR [E14I]: the protein stability index was found to be 1.95.

In the case of YCSIKCQQEHWHAQHKRTCRRKR [E14Q], the protein stability index turned out to be 2.26.

For YCSIKCQQEHWHAMHKRTCRRKR [E14M], the protein stability index turned out to be 1.77.

With YCSIKCQQEHWHAWHKRTCRRKR [E14W], the protein stability index was determined as 1.71.

As for YCSIKCQQEHWHANHKRTCRRKR [E14N], the protein stability index is 2.17.

With YCSIKCQQEHWHAGHKRTCRRKR [E14G], the protein stability index came out at 3.11.

As for YCSIKCQQEHWHAKHKRTCRRKR [E14K], the protein stability index was 2.92.

As for YCSIKCQQEHWHARHKRTCRRKR [E14R], the protein stability index is 2.35.

YCSIKCQQEHWHATHKRTCRRKR [E14T]: the protein stability index stood at 2.36.

YCSIKCQQEHWHALHKRTCRRKR [E14L]: the protein stability index is 1.87.
